Laboratory results: US20110117017A1, “PEPTIDES WITH PROPERTIES OF AN […] FOR THE ALPHA 1A […] RECEPTOR AND USES THEREOF” (priority 2006, published 2011)
Read-outs that look alike come from different tables or passages of the source.

How the values were obtained:
[1] = molecular target: alpha1a adrenergic receptor (expressed in Pichia pastoris, membranes)
[2] = molecular target: alpha1a adrenergic receptor (expressed in Pichia pastoris, membranes); remark: listed apart in the source
[3] = molecular target: alpha1d adrenergic receptor (expressed in Pichia pastoris, membranes)
[4] = molecular target: alpha2a adrenergic receptor (expressed in Pichia pastoris, membranes)
[5] = molecular target: beta1 adrenergic receptor (expressed in Pichia pastoris, membranes)
[6] = molecular target: alpha1a adrenergic receptor (expressed in Pichia pastoris, membranes); remark: listed apart in the source

Chain of alpha1a adrenergic receptor (expressed in Pichia pastoris, membranes) (P35348 whole entry): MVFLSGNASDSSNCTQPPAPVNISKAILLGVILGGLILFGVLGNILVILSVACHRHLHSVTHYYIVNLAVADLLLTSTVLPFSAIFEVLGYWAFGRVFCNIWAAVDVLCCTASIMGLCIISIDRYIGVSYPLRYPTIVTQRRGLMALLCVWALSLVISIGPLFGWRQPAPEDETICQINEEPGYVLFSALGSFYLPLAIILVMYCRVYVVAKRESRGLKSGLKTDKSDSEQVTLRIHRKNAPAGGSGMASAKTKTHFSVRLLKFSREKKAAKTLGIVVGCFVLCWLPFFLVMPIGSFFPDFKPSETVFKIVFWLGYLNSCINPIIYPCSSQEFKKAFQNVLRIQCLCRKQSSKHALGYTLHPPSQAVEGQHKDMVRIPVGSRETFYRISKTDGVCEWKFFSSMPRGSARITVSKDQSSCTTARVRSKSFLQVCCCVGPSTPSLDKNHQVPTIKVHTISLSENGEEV
Chain of alpha1d adrenergic receptor (expressed in Pichia pastoris, membranes) (P25100 whole entry): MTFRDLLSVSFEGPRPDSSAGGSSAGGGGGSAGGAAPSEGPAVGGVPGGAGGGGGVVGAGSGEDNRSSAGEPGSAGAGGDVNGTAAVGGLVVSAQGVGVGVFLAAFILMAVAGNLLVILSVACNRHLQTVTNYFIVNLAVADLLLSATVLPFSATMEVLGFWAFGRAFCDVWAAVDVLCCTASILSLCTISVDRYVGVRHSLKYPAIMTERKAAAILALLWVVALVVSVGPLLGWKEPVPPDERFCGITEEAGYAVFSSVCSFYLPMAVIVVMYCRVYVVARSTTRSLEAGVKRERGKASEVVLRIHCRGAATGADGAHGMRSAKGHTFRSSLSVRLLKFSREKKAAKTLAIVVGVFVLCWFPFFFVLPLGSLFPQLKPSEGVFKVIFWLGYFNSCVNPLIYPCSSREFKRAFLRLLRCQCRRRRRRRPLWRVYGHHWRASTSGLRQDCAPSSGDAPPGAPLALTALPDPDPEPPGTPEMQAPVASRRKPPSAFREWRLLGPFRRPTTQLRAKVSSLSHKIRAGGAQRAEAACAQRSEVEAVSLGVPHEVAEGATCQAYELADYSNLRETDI
Chain of beta1 adrenergic receptor (expressed in Pichia pastoris, membranes) (P08588 whole entry): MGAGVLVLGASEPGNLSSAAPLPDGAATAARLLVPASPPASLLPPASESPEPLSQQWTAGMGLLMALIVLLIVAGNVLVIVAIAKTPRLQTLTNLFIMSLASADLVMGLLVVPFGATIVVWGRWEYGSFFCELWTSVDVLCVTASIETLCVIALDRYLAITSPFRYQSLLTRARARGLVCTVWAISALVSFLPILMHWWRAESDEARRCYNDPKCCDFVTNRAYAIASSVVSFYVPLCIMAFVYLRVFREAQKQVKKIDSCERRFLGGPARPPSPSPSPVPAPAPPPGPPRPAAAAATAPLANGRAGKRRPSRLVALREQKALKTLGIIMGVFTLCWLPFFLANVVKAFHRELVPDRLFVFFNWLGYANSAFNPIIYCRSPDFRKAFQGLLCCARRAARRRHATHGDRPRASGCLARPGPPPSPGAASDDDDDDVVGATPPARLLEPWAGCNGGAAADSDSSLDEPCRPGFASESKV
Chain of alpha2a adrenergic receptor (expressed in Pichia pastoris, membranes) (P08913 whole entry): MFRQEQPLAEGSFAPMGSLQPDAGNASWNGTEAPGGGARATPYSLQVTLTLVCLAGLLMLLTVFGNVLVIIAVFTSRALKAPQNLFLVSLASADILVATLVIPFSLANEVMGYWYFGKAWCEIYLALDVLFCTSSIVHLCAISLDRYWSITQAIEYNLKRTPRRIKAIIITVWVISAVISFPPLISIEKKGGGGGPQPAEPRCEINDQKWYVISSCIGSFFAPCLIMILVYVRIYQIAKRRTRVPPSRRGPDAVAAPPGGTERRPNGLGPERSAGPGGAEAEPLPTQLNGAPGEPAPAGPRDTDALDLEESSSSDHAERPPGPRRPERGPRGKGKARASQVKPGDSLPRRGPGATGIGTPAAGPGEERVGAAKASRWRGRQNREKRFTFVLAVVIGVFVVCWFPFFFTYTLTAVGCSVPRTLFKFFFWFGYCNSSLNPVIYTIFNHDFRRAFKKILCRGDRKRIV

Substance: AdTx1 peptide
- IC50 [1]: 0.5 nM
- IC50 [2]: 1.8 nM
- IC50 [3]: 9900 nM
- IC50 [4]: > 50000 nM
- IC50 [5]: > 50000 nM

Substance: radiolabeled AdTx1 peptide (125I-AdTx1)
- Kd [6]: 0.8 nM
